Data on 13 molecules can be found in patent US8715959B2, “Substitution mutant receptors and their use in a nuclear receptor-based inducible gene expression system” (priority 2001, dated 2014).

For this assay, the system named is CfEcR-DEF. The experiment in a line: GAL4/mutant CfEcR-DEF + VP16/LmUSP-EF GAL4-driven luciferase reporter transactivation in NIH3T3 cells. Format: cell-based, Choristoneura fumiferana. To be noted: NIH3T3 cells, relative to Gal4/wild-type CfEcR-DEF switch activity; for Fold increase over WT, 2.5 μM GS™-E: 2.5 μM GS™-E non-steroidal ligand; for Fold increase over WT, 2.5 μM PonA: 2.5 μM PonA steroidal ligand. How it is done: DNAs corresponding to the various switch constructs outlined in Example 1, specifically switches 1.1-1.13, were transfected into mouse NIH3T3 cells (ATCC) or L57 cells (Dr. Peter Cherbas; Indiana University) as follows. Standard methods for culture and maintenance of the cells were followed. […] Superfect™ (Qiagen Inc.) was used for 3T3 cells and Lipofectamine™ (LifeTechnologies) was used for L57 cells as the transfection reagents. For 12-well plates, 4 μl of Superfect™ or Lipofectamine™ was mixed with 100 μl of growth medium. One μg of reporter construct and 0.25 μg of each receptor construct of the receptor pair to be analyzed were added to the transfection mix. […] The cells were harvested and reporter activity was assayed.
Cells were harvested 40 hours after adding ligands. […] Twenty μl of lysate were assayed.
Briefly, Applicants mutated amino acid residues predicted to be critical for ecdysteroid binding into alanine and created GAL4/mutantCfEcR-DEF cDNA gene expression cassettes as described in Example 1 above using the Quikchange PCR-mediated site-directed mutagenesis kit (Stratagene, La Jolla, Calif.). The mutated and the WT cDNAs were tested in GAL4-driven luciferase reporter assays.
DNAs corresponding to the various switch constructs outlined in Example 1, specifically switches 1.1-1.2, were transfected into mouse NIH3T3 cells (ATCC) as follows. […] Two μl of Superfect™ was mixed with 100 μl of growth medium and 50 ng of either GAL4/wild-type EcR or Gal4/mutant EcR cassette, 50 ng of VP16/LmUSP-EF and 200 ng of pFRLuc were added to the transfection mix. […] The cells were harvested and reporter activity was assayed as described above.

B1: I62A: CfEcR-DEF LBD substitution mutant, Isoleucine (I) to Alanine (A) (protein, listed as Choristoneura fumiferana)
chain: LTANQQFLIARLIWYQDGYEQPSDEDLKRITQTWQQADDENEESDTPFRQITEMTILTVQLAVEFAKGLPGFAKISQPDQITLLKACSSEVMMLRVARRYDAASDSVLFANNQAYTRDNYRKAGMAYVIEDLLHFCRCMYSMALDNIHYALLTAVVIFSDRPGLEQPQLVEEIQRYYLNTLRIYILNQLSGSARSSVIYGKILSILSELRTLGMQNSNMCISLKLKNRKLPPFLEEIWDV
B1: the “Fold increase over WT, 2.5 μM GS™-E” value was determined as 0.12 fold and the “Fold increase over WT, 2.5 μM PonA” value is listed as 0.004 fold.

B2: Y120A: CfEcR-DEF LBD substitution mutant, Tyrosine (Y) to Alanine (A) (protein, listed as Choristoneura fumiferana)
chain: LTANQQFLIARLIWYQDGYEQPSDEDLKRITQTWQQADDENEESDTPFRQITEMTILTVQLIVEFAKGLPGFAKISQPDQITLLKACSSEVMMLRVARRYDAASDSVLFANNQAYTRDNARKAGMAYVIEDLLHFCRCMYSMALDNIHYALLTAVVIFSDRPGLEQPQLVEEIQRYYLNTLRIYILNQLSGSARSSVIYGKILSILSELRTLGMQNSNMCISLKLKNRKLPPFLEEIWDV
Turning to B2, the “Fold increase over WT, 2.5 μM GS™-E” value came out at 0.001 fold and the “Fold increase over WT, 2.5 μM PonA” value came out at 0.006 fold.

B3: L234A: CfEcR-DEF LBD substitution mutant, Leucine (L) to Alanine (A) (protein, listed as Choristoneura fumiferana)
chain: LTANQQFLIARLIWYQDGYEQPSDEDLKRITQTWQQADDENEESDTPFRQITEMTILTVQLIVEFAKGLPGFAKISQPDQITLLKACSSEVMMLRVARRYDAASDSVLFANNQAYTRDNYRKAGMAYVIEDLLHFCRCMYSMALDNIHYALLTAVVIFSDRPGLEQPQLVEEIQRYYLNTLRIYILNQLSGSARSSVIYGKILSILSELRTLGMQNSNMCISLKLKNRKLPPFAEEIWDV
With B3, the “Fold increase over WT, 2.5 μM GS™-E” value stood at 0.001 fold and the “Fold increase over WT, 2.5 μM PonA” value stood at 0.006 fold.

B4: L230A: CfEcR-DEF LBD substitution mutant, Leucine (L) to Alanine (A) (protein, listed as Choristoneura fumiferana)
chain: LTANQQFLIARLIWYQDGYEQPSDEDLKRITQTWQQADDENEESDTPFRQITEMTILTVQLIVEFAKGLPGFAKISQPDQITLLKACSSEVMMLRVARRYDAASDSVLFANNQAYTRDNYRKAGMAYVIEDLLHFCRCMYSMALDNIHYALLTAVVIFSDRPGLEQPQLVEEIQRYYLNTLRIYILNQLSGSARSSVIYGKILSILSELRTLGMQNSNMCISLKLKNRKAPPFLEEIWDV
Turning to B4, the “Fold increase over WT, 2.5 μM GS™-E” value turned out to be 0.001 fold and the “Fold increase over WT, 2.5 μM PonA” value is listed as 0.006 fold.

B5: Q21A: CfEcR-DEF LBD substitution mutant, Glutamine (Q) to Alanine (A) (protein, listed as Choristoneura fumiferana)
chain: LTANQQFLIARLIWYQDGYEAPSDEDLKRITQTWQQADDENEESDTPFRQITEMTILTVQLIVEFAKGLPGFAKISQPDQITLLKACSSEVMMLRVARRYDAASDSVLFANNQAYTRDNYRKAGMAYVIEDLLHFCRCMYSMALDNIHYALLTAVVIFSDRPGLEQPQLVEEIQRYYLNTLRIYILNQLSGSARSSVIYGKILSILSELRTLGMQNSNMCISLKLKNRKLPPFLEEIWDV
For B5, the “Fold increase over WT, 2.5 μM GS™-E” value worked out at 0.32 fold and the “Fold increase over WT, 2.5 μM PonA” value turned out to be 0.37 fold.

B6: R95A: CfEcR-DEF LBD substitution mutant, Arginine (R) to Alanine (A) (protein, listed as Choristoneura fumiferana)
chain: LTANQQFLIARLIWYQDGYEQPSDEDLKRITQTWQQADDENEESDTPFRQITEMTILTVQLIVEFAKGLPGFAKISQPDQITLLKACSSEVMMLAVARRYDAASDSVLFANNQAYTRDNYRKAGMAYVIEDLLHFCRCMYSMALDNIHYALLTAVVIFSDRPGLEQPQLVEEIQRYYLNTLRIYILNQLSGSARSSVIYGKILSILSELRTLGMQNSNMCISLKLKNRKLPPFLEEIWDV
Consider B6, for which the “Fold increase over WT, 2.5 μM GS™-E” value worked out at 0.4 fold and the “Fold increase over WT, 2.5 μM PonA” value stood at 0.006 fold.

B7: A123F: CfEcR-DEF LBD substitution mutant, Alanine (A) to Phenylalanine (F) (protein, listed as Choristoneura fumiferana)
chain: LTANQQFLIARLIWYQDGYEQPSDEDLKRITQTWQQADDENEESDTPFRQITEMTILTVQLIVEFAKGLPGFAKISQPDQITLLKACSSEVMMLRVARRYDAASDSVLFANNQAYTRDNYRKFGMAYVIEDLLHFCRCMYSMALDNIHYALLTAVVIFSDRPGLEQPQLVEEIQRYYLNTLRIYILNQLSGSARSSVIYGKILSILSELRTLGMQNSNMCISLKLKNRKLPPFLEEIWDV
Turning to B7, the “Fold increase over WT, 2.5 μM GS™-E” value is 0.09 fold and the “Fold increase over WT, 2.5 μM PonA” value is 0.005 fold.

B8: M93A: CfEcR-DEF LBD substitution mutant, Methionine (M) to Alanine (A) (protein, listed as Choristoneura fumiferana)
chain: LTANQQFLIARLIWYQDGYEQPSDEDLKRITQTWQQADDENEESDTPFRQITEMTILTVQLIVEFAKGLPGFAKISQPDQITLLKACSSEVMALRVARRYDAASDSVLFANNQAYTRDNYRKAGMAYVIEDLLHFCRCMYSMALDNIHYALLTAVVIFSDRPGLEQPQLVEEIQRYYLNTLRIYILNQLSGSARSSVIYGKILSILSELRTLGMQNSNMCISLKLKNRKLPPFLEEIWDV
For the molecule B8, the “Fold increase over WT, 2.5 μM GS™-E” value came out at 0.46 fold and the “Fold increase over WT, 2.5 μM PonA” value is reported as 0.07 fold.

B9: L223A: CfEcR-DEF LBD substitution mutant, Leucine (L) to Alanine (A) (protein, listed as Choristoneura fumiferana)
chain: LTANQQFLIARLIWYQDGYEQPSDEDLKRITQTWQQADDENEESDTPFRQITEMTILTVQLIVEFAKGLPGFAKISQPDQITLLKACSSEVMMLRVARRYDAASDSVLFANNQAYTRDNYRKAGMAYVIEDLLHFCRCMYSMALDNIHYALLTAVVIFSDRPGLEQPQLVEEIQRYYLNTLRIYILNQLSGSARSSVIYGKILSILSELRTLGMQNSNMCISAKLKNRKLPPFLEEIWDV
Turning to B9, the “Fold increase over WT, 2.5 μM GS™-E” value amounted to 0.118 fold and the “Fold increase over WT, 2.5 μM PonA” value amounted to 0.007 fold.

B10: F109A: CfEcR-DEF LBD substitution mutant, Phenylalanine (F) to Alanine (A) (protein, listed as Choristoneura fumiferana)
chain: LTANQQFLIARLIWYQDGYEQPSDEDLKRITQTWQQADDENEESDTPFRQITEMTILTVQLIVEFAKGLPGFAKISQPDQITLLKACSSEVMMLRVARRYDAASDSVLAANNQAYTRDNYRKAGMAYVIEDLLHFCRCMYSMALDNIHYALLTAVVIFSDRPGLEQPQLVEEIQRYYLNTLRIYILNQLSGSARSSVIYGKILSILSELRTLGMQNSNMCISLKLKNRKLPPFLEEIWDV
Turning to B10, the “Fold increase over WT, 2.5 μM GS™-E” value stood at 0.22 fold and the “Fold increase over WT, 2.5 μM PonA” value is recorded as 0.005 fold.

B11: W238A: CfEcR-DEF LBD substitution mutant, Tryptophan (W) to Alanine (A) (protein, listed as Choristoneura fumiferana)
chain: LTANQQFLIARLIWYQDGYEQPSDEDLKRITQTWQQADDENEESDTPFRQITEMTILTVQLIVEFAKGLPGFAKISQPDQITLLKACSSEVMMLRVARRYDAASDSVLFANNQAYTRDNYRKAGMAYVIEDLLHFCRCMYSMALDNIHYALLTAVVIFSDRPGLEQPQLVEEIQRYYLNTLRIYILNQLSGSARSSVIYGKILSILSELRTLGMQNSNMCISLKLKNRKLPPFLEEIADV
Consider B11, for which the “Fold increase over WT, 2.5 μM GS™-E” value was 0.002 fold and the “Fold increase over WT, 2.5 μM PonA” value amounted to 0.013 fold.

B12: R95A/A110P: CfEcR-DEF LBD double mutant, R95A and A110P (protein, listed as Choristoneura fumiferana)
chain: LTANQQFLIARLIWYQDGYEQPSDEDLKRITQTWQQADDENEESDTPFRQITEMTILTVQLIVEFAKGLPGFAKISQPDQITLLKACSSEVMMLAVARRYDAASDSVLFPNNQAYTRDNYRKAGMAYVIEDLLHFCRCMYSMALDNIHYALLTAVVIFSDRPGLEQPQLVEEIQRYYLNTLRIYILNQLSGSARSSVIYGKILSILSELRTLGMQNSNMCISLKLKNRKLPPFLEEIWDV
In the case of B12, the “Fold increase over WT, 2.5 μM GS™-E” value was 0.4 fold and the “Fold increase over WT, 2.5 μM PonA” value amounted to 0.007 fold.

B13: M125A: CfEcR-DEF LBD substitution mutant, Methionine (M) to Alanine (A) (protein, listed as Choristoneura fumiferana)
chain: LTANQQFLIARLIWYQDGYEQPSDEDLKRITQTWQQADDENEESDTPFRQITEMTILTVQLIVEFAKGLPGFAKISQPDQITLLKACSSEVMMLRVARRYDAASDSVLFANNQAYTRDNYRKAGAAYVIEDLLHFCRCMYSMALDNIHYALLTAVVIFSDRPGLEQPQLVEEIQRYYLNTLRIYILNQLSGSARSSVIYGKILSILSELRTLGMQNSNMCISLKLKNRKLPPFLEEIWDV
For B13, the “Fold increase over WT, 2.5 μM GS™-E” value stood at 0.005 fold and the “Fold increase over WT, 2.5 μM PonA” value was found to be 0.007 fold.
